# PMC13462943
# B1: GLP methyltransferase domain (aa 1001-1266), wild type [human] / itself (parent)
# chain: DRPSPVERIVSRDIARGYERIPIPCVNAVDSEPCPSNYKYVSQNCVTSPMNIDRNITHLQYCVCIDDCSSSNCMCGQLSMRCWYDKDGRLLPEFNMAEPPLIFECNHACSCWRNCRNRVVQNGLRARLQLYRTRDMGWGVRSLQDIPPGTFVCEYVGELISDSEADVREEDSYLFDLDNKDGEVYCIDARFYGNVSRFINHHCEPNLVPVRVFMAHQDLRFPRIAFFSTRLIEAGEQLGFDYGERFWDIKGKLFSCRCGSPKCRHS
# Variants of: B1
# Assay: native mass spectrometry (nESI-MS)
# Conditions: with itself; parent: 1; read off a plot
row,ratio to parent,Variant
1,0.34,chain 1 C73Y
